Changes are numbered by the printed parent chain. Values belong to the binder of their own block, whether it stands above or below them.
Molecular target: T1, BSA (UniProt P02769 25-607)
T1 construct: also called bovine serum albumin; immobilized BSA
Test: indirect ELISA heat map, hIgG subtracted

T1 sequence (P02769 25-607 limits assumed): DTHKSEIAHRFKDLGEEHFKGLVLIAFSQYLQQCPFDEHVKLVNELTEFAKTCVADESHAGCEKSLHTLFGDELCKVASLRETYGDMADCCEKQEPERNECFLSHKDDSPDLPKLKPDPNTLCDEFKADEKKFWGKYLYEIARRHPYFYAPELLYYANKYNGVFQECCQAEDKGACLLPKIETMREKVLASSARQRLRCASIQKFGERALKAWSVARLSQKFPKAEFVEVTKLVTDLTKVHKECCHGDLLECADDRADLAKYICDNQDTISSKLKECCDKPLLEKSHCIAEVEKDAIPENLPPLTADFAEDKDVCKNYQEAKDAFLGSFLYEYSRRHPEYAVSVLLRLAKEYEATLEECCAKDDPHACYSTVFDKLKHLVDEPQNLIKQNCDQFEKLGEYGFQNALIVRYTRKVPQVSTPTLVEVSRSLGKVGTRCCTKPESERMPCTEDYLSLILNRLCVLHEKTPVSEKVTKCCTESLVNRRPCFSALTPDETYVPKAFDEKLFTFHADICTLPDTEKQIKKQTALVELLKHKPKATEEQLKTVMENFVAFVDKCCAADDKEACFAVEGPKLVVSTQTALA

B1: PA01P2G07 (antibody, V domains shown)
VH: QVLLVQSGSEVKNPGASIRVSCKTSGYMFTNNGIAWVREVPTQGLEWMGWISTYSGATHYAPNLHGRITMTADTSASTAYMELRSLQSGDTGVYYCARLWFGKLGLDFWGQGTQVTVSS
VL: QSVLTQPPSASGTPGQRVIISCSGSTSNIGTKTVNWYQHLPGTAPKLLIYNNNQRPSGVPDRFSGSKSGTSASLTISGLQSEDEADYYCAAWDDSLNGRGLFGPGTKVTVL
notes: subject PA01; also called Clone PA01P2G07
- binding result: no binding (tested: 2 ng/µL)

B2: PA01P2D04 (antibody, human IgG1, V domains shown)
VH: QVQLLQSGPEVKQPGASVQVSCQTSGYTFTGYYIHWVRQAPGQGLEWVGWINPNRGHTNYGPAFQGRLTLTADTSSSTAYLELTRLRSDDTAVYYCARDRLTGGRDAFEIWGQGTMLIVSS
VL: DIQLTQSPSSLSASVGDRVTITCRASQSISSYLNWYQQKPGKAPKLLISVASSLQDGVPPRFSGSRSGTEFTLTISSLQPEDFAIYYCQQSYSLSWTFGQGTKVEIK
- binding result: no binding (tested: 2 ng/µL)

B3: PA01P2B12 (antibody, human IgG1, V domains shown)
VH: B2 VH with L5V, P9A, S21A, T28I, G31A, V37L, G61A, A63G, E82A, R87A
VL: B2 VL with I29V, K42E, V50A, S95W
- binding result: no binding (tested: 2 ng/µL)

B4: PA01P1D06 (antibody, V domains shown)
VH: QVTLRESGPALVEVTQTVTLTCNFSGFSLHTRGMYVNWIRQPPGKALEWLAVINWDDDKYYTPSLKNRLTISKDTSKNQVVLTMTNMDPVDTATYYCARTDYGGYGPEGFDYWGQGTLVTVSS
VL: EIVMTQSPATLSVSPGESATLSCRASQSVRSNLAWYQQKPGQAPRLLIYGASTRAPGVPARFTGSESGREFTLTISSLQSEDFAVYYCQQYNNWPPYTFGQGTKLEIK
notes: subject PA01; also called Clone PA01P1D06
- binding result: no binding (tested: 2 ng/µL)

B5: PA01P2B05 (antibody, human IgG1, V domains shown)
VH: EVQLLESGGGLVQPGGSLRLSCVASGFTFSGHAMSWVRQAPGKGLEWVSGISGSGGSTYYADSVKGRFTISRDNSKKTVDLQMNNLRAEDTAIYYCAKDLHFDTSGYYYSMIFDYWGQGTLVPVSS
VL: QSALAQPASVSGSPGQSITISCTGTSSDISDYNYVSWYQQHPGKAPKLILYDVNNRPSGVSSRFSGSKSGDTASLTISGLQPEDEADYYCSSYTSTKIFGGGTKVTVL
- binding result: no binding (tested: 2 ng/µL)

B6: PA01P2D10 (antibody, human IgG1, V domains shown)
VH: EVLLLESGGGLVHPGGTLRLSCAASGFTFRNSAMTWVRQAPGKGLEWVSSIGGSGAKSYYADSVKGRFTISRDNSKNTLYLEMNTLRVDDTAIYYCAKDQLNCYDLWSGDYCWFDTWGQGTLVTVSS
VL: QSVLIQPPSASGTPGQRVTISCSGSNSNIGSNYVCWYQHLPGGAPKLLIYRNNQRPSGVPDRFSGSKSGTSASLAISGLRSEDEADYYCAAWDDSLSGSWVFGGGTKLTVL
- binding result: no binding (tested: 2 ng/µL)

B7: PA01P2A05 (antibody, V domains shown)
VH: QVQLQESGPGLVKPSQTLSLTCTVSGGSMRSGDYYWSWIRQPPGKGLEWIGYIYFTGSSYYNPSLKSRATISVDTSKNQFSLKLNSVTAADTAVYFCARGVDVDLTFFDCWGHGTLVTVSS
VL: SYVLTQPPSVSLAPGKTARITCGGNNIGNKSVHWYQQKPGQAPVLVIYYDSDRPSGIPERFSGSNSGNTATLTINRVEAGDEADYHCQVWDSSTDHRVFGEGTKLTVL
notes: subject PA01; also called Clone PA01P2A05
- binding result: no binding (tested: 2 ng/µL)

B8: PA01P2E05 (antibody, V domains shown)
VH: QVQLVESGGGFVKPGGSLRLSCAVSGFTFSDYYMSWVRQAPGKGLEWLSHISSDGSDTNYADSVKGRFSISRDNAKNSVFLQMNTLRVEDTAVYYCARNALTNAYDMSGFRNWGQGTLVTVSS
VL: NFMLTQPHSVSESPGKTVILSCTRSSGSIASNYVRWYQQRPGSAPTTVIYEDSRRPSSVPDRFSGSIDSSSNSASLTISGLKTEDEADYYCQSFDSSSRKVVFGGGTKLTVL
notes: subject PA01; also called Clone PA01P2E05
- binding result: no binding (tested: 2 ng/µL)

B9: PA01P2C09 (antibody, V domains shown)
VH: B8 VH with Q3D, F11Y, P14S, V24A, T28R, G55S, V88A, T117I
VL: B8 VL with S31T, K82R, S96T
notes: subject PA01; also called Clone PA01P2C09
- binding result: no binding (tested: 2 ng/µL)

Results, then the binder that gave them:

- binding result: no binding (tested: 2 ng/µL)
B10: PA01P2D09 (antibody, human IgG1, V domains shown)
VH: EVQLLESGGGLVQPGGSLRLSCAVSGLKFSSYAMSWVRQAPGKGLEWVSVVSGSSGSTFYAVSVEGRFSISRDNSNNMLYMDMHSLRVEDTAKYYCAKVVGWYYDRNGNRRPKGFRAFDVWGQGTMVIVSS
VL: QSVLTQPPSASGTPGQRITIACSGTTSNIGGNSVNWYQQFPGAAPRLLIFDYDQRPSGVPARFSGSSSGSSGYLAISGLQSEDEADYYCSSWDDNLNGWVFGGGTKLTVL
notes: also called PA1P2D09

- binding result: no binding (tested: 2 ng/µL)
B11: PA01P2B10 (antibody, V domains shown)
VH: QVQLQQWGAGLLKPSETLSLTCGVHGGSLNNYYWSWIRQPPGKGLEWIGEVYHSGSINYNPSLKSRVTMSVDTSKNQFSFNLSSVTAADTAVYYCARGAYDSRGFWTLDAFNTWGQGTMVIVSS
VL: DIQMTQSPSALSASLGDRVTITCRASESINSWLAWYQQKPGKAPKLLIYKASTLESGVPSRFSGSGSGTEFTLTISSLQPDDFATYYCHQYNRYSYTFGQGTKLDIK
notes: subject PA01; also called Clone PA01P2B10

- binding result: no binding (tested: 2 ng/µL)
B12: PA01P3E08 (antibody, V domains shown)
VH: QVQLVQSGAEVKKPGASVKVSCKASGYTFIRYDIHWVRQATGQGLEWMGWMNPNNGKSGFAQKFEGRVTLTRNTSVTSTYMQLSSLGLEDTAVYYCVRAGYSYGWGFDYWGQGSLVTVSS
VL: NFTLTQPHSVSGSPGKTVTISCTRSSGGIASSHVQWYQQRPASAPTTLIFEDDQRSSGVPDRFSGSIDTSSNSAYLTISGLEAEDEADYYCQSYDNSMWVFGGGSKVTVL
notes: subject PA01; also called Clone PA01P3E08

- binding result: no binding (tested: 2 ng/µL)
B13: PA01P2B03 (antibody, V domains shown)
VH: EVQLVQSGAEVKKPGESLKISCKGSGYNFTSSWIGWVRQMPGKGLEWMGIIHPGDSDTRYSPSFQGQVTISADKSLTTAFLQWSSLKTSDTAIYYCARHGSTMLWGDAFDIWGQGTMVTVSS
VL: SYELTQPPSVSLSPGQTARITCSGDALPKHYAYWYQQKPGQAPVLVIYKDTERPSGIPERFSGSSSGTTVTLTISGVQAEDEADYYCQSSDSTGEVFGGGTKLTVL
notes: subject PA01; also called Clone PA01P2B03

- binding result: no binding (tested: 2 ng/µL)
B14: PA01P2C12 (antibody, V domains shown)
VH: HVQLQESGPGLVKSSETLSLTCNVSSDSFSDHYWSWVRQPAGKGLQWLGRIYNTGTTTYNPSLNRRITMSVDTSKNQFSLRLTSVTAADTAVYYCAARHYHYDKTIWGQGTLVTVSS
VL: NFMLTQPHSVSESPGKTVTISCTRSSGSIASNYVQWYQQRPGSPPTTVIYEDNQRPSGVPDRFSGSIDSSSNSASLTISGLKPEDEADFYCQSYDSDDREVFGGGTRLTVL
notes: subject PA01; also called Clone PA01P2C12

- binding result: no binding (tested: 2 ng/µL)
B15: PA01P2E07 (antibody, V domains shown)
VH: QLQLQESGSGLVKPSQTLSLTCAVSGGSITSGTYSWTWIRQSPEKGLEWIGYIYYTGSTYYNPSLGRRVTISGDTSNNEFSLNLKSVTAADTAVYYCARGIHRGGVLDFWGQGILVTVSS
VL: EIVLTQSPATLPLSPGERATLSCRASQSLDKYLAWYQQKPGQAPRLLIYDTSKRATGIPARFSGSGSGTDFTLTISSLEPEDFAVYFCQQRNNWPPYTFGQGTKVEMK
notes: subject PA01; also called Clone PA01P2E07

- binding result: no binding (tested: 2 ng/µL)
B16: PA01P2B09 (antibody, V domains shown)
VH: QVEVVESGGGVVQPGKSLRLSCAASGFKFNVYGIHWVRQAPGKGLEWVAVVWYDGSNKYYADSVKGRFTISRDNSKNTTYLQMDSLRVDDTAVYYCARELQYSNYDYFYAMDVWGQGTTVTVSS
VL: DIQMTQSPPSLSASVGDRVTITCRASQDIDNYLVWFQQKPGRAPKSLIYAASSLQSGVPSKFSGSGSGTEFTLTISSLQPEDFATYYCQQYNSFPYTFGQGTKLEIK
notes: subject PA01; also called Clone PA01P2B09

- binding result: no binding (tested: 2 ng/µL)
B17: PA01P2E08 (antibody, human IgG1, V domains shown)
VH: QVQLVESGGGVVQPGRSLRLSCVASGFDLNAYGMHWVRQAPGKGLDWVAATSRGGTKKYYADSVKGRFTISRDVSKNTLYLQMGSLRTGDTAIYYCGVGMEDVFDIWGQGTMVTVSP
VL: QSVLTQPPSVSAAPGQKVTISCSENNSNIGNRNVSWYQQLPGKAPKLFIYDNNERPSGIPARFSGSKSGTSATLVITGLQTGDEADYYCGTWDRSLSVWVFGGGTKLTVL

- binding result: no binding (tested: 2 ng/µL)
B18: PA01P2B04 (antibody, V domains shown)
VH: QVQLQQWGAGLLKPSETLSLTCTVIGTSFSNYYWSWIRQPPGKGLQWIGEITHSDSANYNPSLKSRVIISIDSSKNQLSLNLSSVTAADTAVYYCARGSKDYYDRSTFSWFDPWGQGTLVTVSS
VL: EIVMTQSPATLSVSPGERATLSCRASQNISNKLAWYQQKPGQAPRLLIYDASTRATGVPARFSCSVSGTAFTLTINRLQSEDFAVYYCQQYYYWPPPYTFGHGTKLEIK
notes: subject PA01; also called Clone PA01P2B04

- binding result: no binding (tested: 2 ng/µL)
B19: PA01P2D11 (antibody, V domains shown)
VH: QLQLQESGSGLVKPSQTLSLTCDVSGDSMNDDVYTWSWIRQPPGRGLEWIGYISHTGNTFYNSSLQSRVTMSVDTSKNQFSLKLSSVTIADTAVYYCARLTFLFSAPFSSFNWFDPWGQGILVTVSS
VL: QSVLTQPPSVSGAPGQTITISCTGTPSNFGADYDVHWYQQRPGTAPKLLIFADKHRPSGVPDRFSGSRSGTSASLAISGLQAEDEADYYCQSYDSGVVGLWVFGGGTKVTVL
notes: subject PA01; also called Clone PA01P2D11

- binding result: no binding (tested: 2 ng/µL)
B20: PA01P2C04 (antibody, V domains shown)
VH: QVQLQESGPGLVKPSETLSLTCSVSGGSISSHYWSWIRQPPGRGLEWIAYISYSGRTKYNPSLKSRVTISEDTSKNQFSLKLSSVTPADTAVYYCARIYGDYGPFIDYWGQGTLVTVSS
VL: DIQMTQSPSSLSASVGDRVTITCRASQTISTYLNWYQQKPGTAPMLLIYGAYSLHSGVPSRFSGSGSGTDFTLTISSLQPEDFATYYCQQSSSLPLTFGGGTKVEIK
notes: subject PA01; also called Clone PA01P2C04

- binding result: no binding (tested: 2 ng/µL)
B21: PA01P4C11 (antibody, V domains shown)
VH: EVQLLESGGGLLQLGGSLRLSCAASGFTFSSYVMSWVRQAPGKGLEWVSLITGSGGNTYYADSVKGRFTISRDNSKNTLFLQMNSLRVEDTAIYYCVKTDFYDSSGYYFHDAFHIWGQGTMVTVSS
VL: QTVVTQEPSLTVSPGGTVTLTCASSTGSVTSGYYPNWFQQKPGQAPRTLIYGTSNKHSWTPARFSGSLLGGKAALTLSDVQPEDEAEYYCLLYYGGAYVFGTGTKVTVL
notes: subject PA01; also called Clone PA01P4C11

- binding result: no binding (tested: 2 ng/µL)
B22: PA01P2E10 (antibody, V domains shown)
VH: QVQLVQSGAEVKKPGASVKVSCKASGYTFTTYGISWVRQAPGQGLEWMGWISAYNGNTTYAQNFHARVTMTTDTSTSTAYMELRSLRSDDTAVYFCARTSARTITIFGVLIPAGLNLDYWGQGTLVTVSS
VL: QSALTQPASVSGSPGQSITISCTGTGSDVGRYNYVSWYQQHPGKAPKFMIYDVSNRPSGVSNRFSASKSGNTASLTISGLQAEDEADYYCSSYTSTSTLVFGGGTKLTVL
notes: subject PA01; also called Clone PA01P2E10
